Experimental data as given in paper PMC8395497.

Columns and labels:
[1] = target: Halisarca dujardini ferritin HdF1a/b (Halisarca dujardini (endogenous in sponge body tissue)); experiment: native gel or EMSA; sponge body tissue homogenates (20 mM EDTA, 50 mM Hepes-Na pH 7.2, 200 mM NaCl, 4 °C) on a native 3.5-10% polyacrylamide gradient gel in 50 mM Bis-Tris-glycine pH 8.0; Prussian blue staining and UV 360 nm absorbance; markers horse ferritin (440 kDa) and thyroglobulin (670 kDa); high molecular mass bands cut out and identified by MALDI/TOF mass spectrometry
[2] = target: Halichondria panicea ferritin HpF1 (Halichondria panicea (endogenous in sponge body tissue)); experiment: as above

Row | stoichiometry N [1] [subunits] | stoichiometry N [2] [subunits] | Substance
1 | 24 | – | Halisarca dujardini ferritin HdF1a/b (natural protein)
2 | – | 24 | Halichondria panicea ferritin HpF1 (natural protein)
